Laboratory results published in patent US6872537B1, “Assays for the detection of microtubule depolymerization inhibitors” (Regents of the University of California, priority 1998, dated 2005).

Tests used:
[1] = literature values for comparison; cited from earlier work
[2] = tested on: Taxol-stabilized, rhodamine-labeled microtubules; experiment: Microscope-based microtubule severing assay; type: biochemical
Protocol: Microscope-based severing assays were performed using previously published procedures (McNally and Vale (1993) Cell, 75: 419-429), except that microtubules were immobilized by first perfusing flow cells with a bacterially expressed kinesin mutant that binds strongly to microtubules but is unable to hydrolyze ATP (K560, G234A mutant; R. Vale and E. Taylor, unpublished results). Assays were performed in 20 mM Hepes (pH 7.5), 2 mM MgCl2, 1 mM ATP with an oxygen scavenger system consisting of glucose oxidase (220 μg/ml), catalase (36 μg/ml), glucose (22.5 mM), and 2-mercaptoethanol (71.5 mM). Images were captured using a cooled, slow-scan CCD (Photometerics) and processed using Adobe Photoshop.

[3] = ATPase assay (modified malachite green method); type: biochemical, Strongylocentrotus purpuratus
Protocol: ATPase activity was measured by a modified malachite green method (Kodama et al. (1986) J. Biochem. 99: 1465-1472). ATPase reactions of 50-100 μl, were carried out in a buffer previously used for measuring the ATPase activity of native katanin [20 mM K-HEPES pH 8.0, 25 mM potassium glutamate 2 mM MgCl2, 10% glycerol (v/v), 0.02% Triton X-100 (w/v), 1 mg/ml BSA] (McNally and Vale (1993) Cell, 75: 419-429), except that soybean trypsin inhibitor (SBTI) was replaced by BSA as a carrier protein because SBTI increased background phosphate contamination. An ATP regenerating system, consisting of 0.5-1.0 mM phosphoenol pyruvate and 2 units of pyruvate kinase, was included to minimize the inhibition by ADP observed previously for native katanin (McNally and Vale (1993) Cell, 75: 419-429). Microtubules were prepared from bovine brain tubulin (Hyman et al. (1990) Meth. Enzymol. 196: 303-319; and Williams and Lee (1982) Meth Enzymol. 85B: 376-385). After assembly, microtubules were sedimented (230,000×g; 10 min), resuspended in ATPase buffer lacking BSA, and the polymers were resuspended by repeated passage through a 27 gauge needle. Microtubule concentration was determined by measuring the absorbance at 275 nm in 6 M guanidine HCl by using a molecular mass of 110 kDa and an extinction coefficient of 1.03 ml mg^−1 cm^−1 (Hackney (1988) Proc. Natl. Acad. Sci. USA, 85: 6314-6318). ATPase reactions were carried out at room temperature, and were initiated by addition of katanin.

microtubules = experiment: DAPI fluorescence microtubule disassembly (severing) assay; type: biochemical, bovine; settings: 2 μM microtubules, 0.2 μM protein
Protocol: ATPase activity was measured by a modified malachite green method (Kodama et al. (1986) J. Biochem. 99: 1465-1472). ATPase reactions of 50-100 μl, were carried out in a buffer previously used for measuring the ATPase activity of native katanin [20 mM K-HEPES pH 8.0, 25 mM potassium glutamate 2 mM MgCl2, 10% glycerol (v/v), 0.02% Triton X-100 (w/v), 1 mg/ml BSA] (McNally and Vale (1993) Cell, 75: 419-429), except that soybean trypsin inhibitor (SBTI) was replaced by BSA as a carrier protein because SBTI increased background phosphate contamination. […] Microtubule concentration was determined by measuring the absorbance at 275 nm in 6 M guanidine HCl by using a molecular mass of 110 kDa and an extinction coefficient of 1.03 ml mg^−1 cm^−1 (Hackney (1988) Proc. Natl. Acad. Sci. USA, 85: 6314-6318). […]
DAPI severing assays were performed using conditions where the change in fluorescence intensity was linear with the amount of tubulin polymer added (Heusele et al. (1987) Eur. J. Biochem. 165: 613-620). […] The reaction volume was 80 μL, and fluorescence intensity was measured by exciting at 370 nm, and measuring the emission at 450 nm using a model 8100 fluorimeter (SLM Instruments) in photon counting mode.

B1: NSF: recombinant NSF, AAA ATPase cited for comparison (protein, UniProt P46459 1-744, looked up)
Vesicle-fusing ATPase: MAGRSMQAARCPTDELSLTNCAVVNEKDFQSGQHVIVRTSPNHRYTFTLKTHPSVVPGSIAFSLPQRKWAGLSIGQEIEVSLYTFDKAKQCIGTMTIEIDFLQKKSIDSNPYDTDKMAAEFIQQFNNQAFSVGQQLVFSFNEKLFGLLVKDIEAMDPSILKGEPATGKRQKIEVGLVVGNSQVAFEKAENSSLNLIGKAKTKENRQSIINPDWNFEKMGIGGLDKEFSDIFRRAFASRVFPPEIVEQMGCKHVKGILLYGPPGCGKTLLARQIGKMLNAREPKVVNGPEILNKYVGESEANIRKLFADAEEEQRRLGANSGLHIIIFDEIDAICKQRGSMAGSTGVHDTVVNQLLSKIDGVEQLNNILVIGMTNRPDLIDEALLRPGRLEVKMEIGLPDEKGRLQILHIHTARMRGHQLLSADVDIKELAVETKNFSGAELEGLVRAAQSTAMNRHIKASTKVEVDMEKAESLQVTRGDFLASLENDIKPAFGTNQEDYASYIMNGIIKWGDPVTRVLDDGELLVQQTKNSDRTPLVSVLLEGPPHSGKTALAAKIAEESNFPFIKICSPDKMIGFSETAKCQAMKKIFDDAYKSQLSCVVVDDIERLLDYVPIGPRFSNLVLQALLVLLKKAPPQGRKLLIIGTTSRKDVLQEMEMLNAFSTTIHVPNIATGEQLLEALELLGNFKDKERTTIAQQVKGKKVWIGIKKLLMLIEMSLQMDPEYRVRKFLALLREEGASPLDFD
In the case of B1, the “ATPase activity of other AAA family members” value [1] is given as 0.08 ATP/sec.

B2: p80: baculovirus-expressed His-tagged S. purpuratus katanin p80 subunit (SEQ ID NO:2), contains WD40 repeats (protein, listed as Strongylocentrotus purpuratus)
chain: MATKRAWKLQELVAHSSNVNCLALGPMSGRVMVTGGEDKKVNLWAVGKQNCIISLSGHTSPVDSVKFNSSEELVVAGSQSGTMKIYDLEPAKIVRTLTGHRNSIRCMDFHPFGEFVASGSTDTNVKLWDVRRKGCIYTYKGHSDQVNMIKFSPDGKWLVTASEDTTIKLWDLTMGKLFQEFKNHTGGVTGIEFHPNEFLLASGSSDRTVQFWDLETFQLVSSTSPGASAVRSISFHPDGSYLFCSSQDMLHAFGWEPIRCFDTFSVFWGKVADTVIASTQLIGASFNATNVSVYVADLSRMSTTGIAQEPQSQPSKTPSGGAEEVPSKPLTASGRKNFVRERPHTTSSKQRQPDVKSEPERQSPTQDEGVKDDDATDIKDPDSYAKIFSPKTRVDHSPERNAQPFPAPLDVPGAQEPEPFKHPPKPAAAAAVAPVSRAPAPSASDWQPAQANPAPNRVPAATKPVPAQEVAPSRKPDPISTIIPSDRNKPANLDMDAFLPPAHAQQAPRVNAPASRKQSDSERIEGLRKGHDSMCQVLSSRHRNLDVVRAIWTAGDAKTSVESVVNMKDQAILVDILNIMLLKKSLWNLDMCVVVLPRLKELLSSKYENYVHTSCACLKLILKNFTSLFNQNIKCPPSGIDITREERYNKCSKCYSYLIATRGYVEEKQHVSGKLGSSFRELHLLLDQLE
modifications: His tag; katanin p80 subunit
In the case of B2, the “microtubule severing (in words)” value ([2]; concentrations 5-fold higher than those used for p60 (0.5 μM)) is reported as “unable to sever microtubules”, the “ATPase activity (in words)” value [3] is reported as “no detectable ATPase activity” and the “rate of microtubule disassembly, DAPI fluorescence decrease (in words)” value (microtubules) is reported as “did not cause a change in fluorescence”.

B3: Katanin: microtubule-severing heterodimer of 60 kDa and 80 kDa subunits; values match recombinant p60/p80 (protein)
chain 1: HHHHHHMSVDEICENTKMGREYALLGNYETSLVYYQGVLQQIQKLLTSVHEPQRKHQWQTIRQELSQEYEHVKNITKTLNGFKSEPAAPEPAPNHGRAAPFSHHQHAAKPAAAEPARDPDVWPPPTPVDHRPSPPYQRAARKDPPRRSEPSKPANRAPGNDRGGRGPSDRRGDARSGGGGRGGARGSDKDKNRGGKSDKDKKAPSGEEGDEKKFDPAGYDKDLVENLERDIVQRNPNVHWADIAGLTEAKRLLEEAVVLPLWMPDYFKGIRRPWKGVLMVGPPGTGKTMLAKAVATECGTTFFNVSSASLTSKYHGESEKLVRLLFEMARFYAPSTIFIDEIDSICSKRGTGSEHEASRRVKSELLIQMDGVSGPSAGEESSKMVMVLAATNFPWDIDEALRRRLEKRIYIPLPEIDGREQLLRINLKEVPLADDIDLKSIAEKMDGYSGADITNVCRDASMMAMRRRIQGLRPEEIRHIPKEELNQPSTPADFLLALQKVSKSVGKEDLVKYMAWMEEFGSV
chain 2: HHHHHHMATKRAWKLQELVAHSSNVNCLALGPMSGRVMVTGGEDKKVNLWAVGKQNCIISLSGHTSPVDSVKFNSSEELVVAGSQSGTMKIYDLEPAKIVRTLTGHRNSIRCMDFHPFGEFVASGSTDTNVKLWDVRRKGCIYTYKGHSDQVNMIKFSPDGKWLVTASEDTTIKLWDLTMGKLFQEFKNHTGGVTGIEFHPNEFLLASGSSDRTVQFWDLETFQLVSSTSPGASAVRSISFHPDGSYLFCSSQDMLHAFGWEPIRCFDTFSVFWGKVADTVIASTQLIGASFNATNVSVYVADLSRMSTTGIAQEPQSQPSKTPSGGAEEVPSKPLTASGRKNFVRERPHTTSSKQRQPDVKSEPERQSPTQDEGVKDDDATDIKDPDSYAKIFSPKTRVDHSPERNAQPFPAPLDVPGAQEPEPFKHPPKPAAAAAVAPVSRAPAPSASDWQPAQANPAPNRVPAATKPVPAQEVAPSRKPDPISTIIPSDRNKPANLDMDAFLPPAHAQQAPRVNAPASRKQSDSERIEGLRKGHDSMCQVLSSRHRNLDVVRAIWTAGDAKTSVESVVNMKDQAILVDILNIMLLKKSLWNLDMCVVVLPRLKELLSSKYENYVHTSCACLKLILKNFTSLFNQNIKCPPSGIDITREERYNKCSKCYSYLIATRGYVEEKQHVSGKLGSSFRELHLLLDQLE
In the case of B3, the “basal ATPase activity” value [3] is reported as 0.3 ATP/katanin/sec and the “maximal microtubule-stimulated ATPase rate” value [3] is reported as 3 ATP/katanin/sec.

B4: p60: baculovirus-expressed His-tagged S. purpuratus katanin p60 subunit (SEQ ID NO:1), AAA ATPase (protein, listed as Strongylocentrotus purpuratus)
chain: MSVDEICENTKMGREYALLGNYETSLVYYQGVLQQIQKLLTSVHEPQRKHQWQTIRQELSQEYEHVKNITKTLNGFKSEPAAPEPAPNHGRAAPFSHHQHAAKPAAAEPARDPDVWPPPTPVDHRPSPPYQRAARKDPPRRSEPSKPANRAPGNDRGGRGPSDRRGDARSGGGGRGGARGSDKDKNRGGKSDKDKKAPSGEEGDEKKFDPAGYDKDLVENLERDIVQRNPNVHWADIAGLTEAKRLLEEAVVLPLWMPDYFKGIRRPWKGVLMVGPPGTGKTMLAKAVATECGTTFFNVSSASLTSKYHGESEKLVRLLFEMARFYAPSTIFIDEIDSICSKRGTGSEHEASRRVKSELLIQMDGVSGPSAGEESSKMVMVLAATNFPWDIDEALRRRLEKRIYIPLPEIDGREQLLRINLKEVPLADDIDLKSIAEKMDGYSGADITNVCRDASMMAMRRRIQGLRPEEIRHIPKEELNQPSTPADFLLALQKVSKSVGKEDLVKYMAWMEEFGSV
modifications: His tag; katanin p60 subunit
With B4 the “time until microtubules were completely disassembled” value ([2]; 0.1 μM protein, 1 mM ATP) was 5 min, the “microtubule concentration at peak ATP turnover stimulation” value ([3]; decreases at higher microtubule concentrations) was about 2 μM tubulin and the “rate of microtubule disassembly, DAPI fluorescence decrease (in words)” value (microtubules) was “half as active as p60/p80”.
